Laboratory results from publication doi:10.1101/2025.06.05.658052 (bioRxiv, 2025).

How the values were obtained:
[1] = tested on: EppR (TetR-like error-prone polymerase regulator) (Acinetobacter baumannii ATCC 17978); test: EMSA
[2] = target: the molecule itself; test: SEC

Molecule	Kd [1] [nM]	binding result [2]
recA regulatory region (promoter + 5'-UTR), 145 bp	1100	
His-tagged A. baumannii RecA (natural protein, Acinetobacter baumannii, UniProt A3M645 1-349, looked up) MDENKSKALQAALSQIEKQFGKNTVMRLGDNTVQAVEAVSTGSLTLDIALGIGGLPKGRIIEIYGPESSGKTTMTLQAIAQCQKSGGTCAFIDAEHALDPQYARKLGVDIDNLLVSQPDNGEQALEIADMLVRSGAIDLIVVDSVAALTPKAEIEGEMGDSHMGLQARLMSQALRKITGNAKRSNCMVIFINQIRMKIGVMFGSPETTTGGNALKFYASVRLDIRRIGQVKEGDEIVGSETKVKVVKNKMAPPFKEAIFQILYGKGTNQLGELVDLAVQQDIVQKAGAWYSYQGNKIGQGKNNVIRYFEENTQIAEEIERNIREQLLTTGTNGAVQIEDEEEPDLLLES		binds
